Here are results for 140 substances from the supplement of paper PMC12042874.

± gives the uncertainty stated by the source.

The data set is described as follows: amyloid nucleation score (Sup35N fusion, yeast selection) (log enrichment); library NNK1; higher = more nucleation; inactive = no reads after selection. The procedure, abridged:
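Using DiMSum, nucleation scores were taken as the log enrichment of output over input reads, centred on the mode score of non-aggregating sequences. The input and output reads came from Illumina sequencing of plasmid inserts, with sequences under 100 input reads excluded. The yeast were psi-negative, expressed Sup35N fused to peptides of 20 random codons, were induced with 100 μM copper sulfate for 24 hours, and were grown 7 days at 30°C on medium lacking adenine and uracil.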
In turn, HLVKHVLCSKCTFDVLIIIY came in with an amyloid nucleation score of 1.08 ± 0.21.
Next, HLVRRLYSKWMQT: -0.711 ± 0.96; HLWSFAEMLNNHAVEDCVCT: “inactive”; HMISVDITLVSLWRRIL: -0.402 ± 0.81.
As for HMVFQVKFWTNHRQVFSLPY, the amyloid nucleation score was determined as 2.91 ± 0.14.
HMVHGMFY came in with an amyloid nucleation score of -0.251 ± 0.7.
On to HMWIEFSAVLFSYDMASSNV, for which the amyloid nucleation score was -0.417 ± 0.52.
Then HMWSESQIVGRLYVYRNIVV, with 0.747 ± 0.81.
The substance HNKVATMW had an amyloid nucleation score of 1.46 ± 0.25.
In turn, HNLRVIFCY had an amyloid nucleation score of 0.421 ± 0.58.
HNMGWLFLLAVYLQMFT yielded an amyloid nucleation score of -0.765 ± 1.1.
Then HNWCRSSRRVVMSFMCKTKL, with 0.412 ± 1.1.
For HPFYIFAVYIFPYHCLSCSL, the amyloid nucleation score is 0.331 ± 0.33.
As to HPYIWSVPDYKPFRAQAARV, the amyloid nucleation score was -0.029 ± 1.6.
Then HQLLTVL, with -0.997 ± 0.28; and HRLKTYIMVSFIYRADAVGI, with 4.89 ± 0.068.
As to HRLRLSVVRAIYDTQIHQRA, the amyloid nucleation score was -0.043 ± 0.34.
Next, HRNWCCCCSCWSRLKMHLEL: -1.32 ± 0.64.
In turn, HRPYLCGISYGGSRCELYTA showed an amyloid nucleation score of 0.839 ± 0.75.
Then HRSTVAKSTRKLPGICSVFW, with 0.845 ± 0.8.
Then HRSYHYMLLHTLEDRCRKN, with “inactive”; and HSCRMYYSQRIYIPSNDGSD, with 1.68 ± 0.29.
Then HSDCRFRKLGRTHTSMRVCC, with 0.096 ± 0.49; and HSDFQDFMTDFGHDAFFKDW, with 0.096 ± 0.4; and HSFFMFP, with -0.39 ± 0.73.
HSGYTYDRRYPCNYDFSIQV: the amyloid nucleation score entry was “inactive”.
HSKLFFLWHPWWL: the amyloid nucleation score entry was “inactive”.
With HSVSRCLVNEGNGFSFCKDP, the amyloid nucleation score stood at 1.45 ± 0.39.
Next, HSYCLLLWYG: -1.74 ± 1.9.
Next, HTGIIVKEVAQL: -0.507 ± 1.9; HTNVWGGAHYTSIKAN: 0.581 ± 0.31; HVCSFLQAGAHWRRVAVCAG: 0.124 ± 0.73.
For the substance HVFCQRGCCERRLKIYISVS, the amyloid nucleation score was -1.45 ± 0.57.
In turn, HVLADHYTMRGTNFVGYFHL came in with an amyloid nucleation score of 4.88 ± 0.069.
Next, HVLHNWSDHDRN: 1.23 ± 0.55; HVLLYCANFVIYTDVA: 2.45 ± 0.26; HVLTQRRRMSFTVTRYHKRI: 1.1 ± 0.52.
Turning to HVMIFVIFPENYNICTFMKY, the amyloid nucleation score was determined as 2.29 ± 0.2.
Next, HVNFNKGRMGGADSAVRCWW: -1.52 ± 1.8.
HVNLLNRTLCK came in with an amyloid nucleation score of 0.151 ± 0.9.
Take HVTMKMIASSTMLDQHSWAR: the amyloid nucleation score was -0.065 ± 0.32.
Next, HVVVHDGSTQLWDARVRKWP: 0.558 ± 0.64.
Then HWCCIKSVGCIWIRKSVTRC, with 0.204 ± 0.43; and HWNHYWQ, with -0.07 ± 0.46; and HWRTCCWQEMLLMSALSRQG, with -0.252 ± 0.46.
On to HWTYWIRI, for which the amyloid nucleation score is -0.084 ± 1.6.
Next, HYRYGGLAMFLVWIEMFLYW: 0.407 ± 1.1.
Next, HYSRDSLVVWYI: -0.228 ± 0.56; HYVFRHAWDSSFDVNVGLAQ: 0.564 ± 0.9; IAIFKYVKRDSSGKNCLSRS: -0.242 ± 0.25.
Next, IAIFMYCM: 7.467 ± 0.055; IAILNLDNLGGYGCNCFHYF: 4.23 ± 0.13.
Turning to IALRL, the amyloid nucleation score was found to be 0.91 ± 0.4.
Then IAMSSYPLD, with 1.02 ± 1.1.
As for IARFHTDSYHYRY, the amyloid nucleation score was -0.08 ± 1.1.
IARYSTVYPVPHNCRNHKHS came in with an amyloid nucleation score of 0.15 ± 1.1.
IASDRFF showed an amyloid nucleation score of 0.77 ± 0.97.
Next, IATNRGMCLGLRVSGLDMAR: 1.13 ± 0.49; IAYGSINCGFNRL: 1.18 ± 0.32.
On to IAYLNKAKNLFLC, for which the amyloid nucleation score result was “inactive”.
Then ICACIMELCSLLHGIRGM, with -0.378 ± 1.4; and ICFFGLDVNFTRLSTVTRFT, with 2.66 ± 0.16.
Next, ICILLFGVRSDCM: 1.44 ± 0.37; ICSNGRARPGNMSV: -0.047 ± 1.7.
The substance ICVMSPGMESCGLVFGAWYT returned an amyloid nucleation score of 0.61 ± 0.56.
Next, ICWNHTTVGFGMIMVVYYL: 1.95 ± 0.091.
Next, IDMIVGNLN: “inactive”; IDMTQGMRLQWMFNRALLCW: 0.813 ± 0.72.
Regarding IDVFLNALSVWNVIVDLIIV, the amyloid nucleation score is -0.225 ± 0.42.
The substance IEDAALRSKEPGFVQHNYSS yielded an amyloid nucleation score of 4.17 ± 0.077.
IEDFEKGISVRVVTLWSWVV showed an amyloid nucleation score of -0.93 ± 0.39.
Next, IETVLIVAY: 0.355 ± 0.53; IFAPAIMSFYSLVIQWPYPG: 1.99 ± 0.45; IFAVHMLYSECTGSFRYHWS: 0.055 ± 0.79.
With IFCSNECVSTVDADTPGLSL, the amyloid nucleation score worked out at 9.289 ± 0.044.
Substance IFGKTFTGYMVRFGVVHDLA had an amyloid nucleation score of 0.358 ± 0.41.
Next, IFGYMSGS: 0.543 ± 0.63; IFISIVLLF: 4.8 ± 0.079; IFKDLCLTTSGLDIDPNFND: 0.762 ± 0.51.
Then IFKGGFTWYCCDKARGLKGR, with 0.411 ± 0.34.
As for IFNML, the amyloid nucleation score was -0.083 ± 0.93.
Next, IFSENRDVGNVFSVGQIVIF: 3.72 ± 0.079; IFSGECHVYVGSRQGWALVI: -0.22 ± 0.98; IFSPVSCDMVTDGMGTSCWY: 0.144 ± 0.9.
Then IFTVSRGPVTLCWDWWETHA, with 0.196 ± 0.56; and IGCQLNIRVCLKVILLYVEA, with 0.259 ± 0.95.
Then IGCSI, with “inactive”; and IGIGWATSLCLDRDLFVTSG, with 0.029 ± 1.2.
Substance IGILMVACRLHNVSLYLCSG gave an amyloid nucleation score of -0.514 ± 0.96.
Consider IGQFMVDWYNIGGREPVPGS, for which the amyloid nucleation score came out at 0.301 ± 0.78.
Then IGRRDWH, with 0.925 ± 0.49.
On to IGWCWVIMQGNIEQVDRG, for which the amyloid nucleation score stood at 4.72 ± 0.074.
Then IGYLDMGNRFGYLLARC, with -1.1 ± 0.62; and IGYLDYLCCGISLFFQETEA, with 0.427 ± 0.48; and IHESTWSVKGSWVHQRGPGP, with 2.56 ± 0.21.
Then IHLGCCMLFRRLGECRLVV, with -0.409 ± 0.29; and IHLNQ, with 1.15 ± 0.55.
Next, IHYIPAFYRAKSILLFVYAC: -0.241 ± 0.5.
As to IIFGCCVF, the amyloid nucleation score is 7.982 ± 0.062.
As to IIFKSVNYLLPIVVKNMCGT, the amyloid nucleation score turned out to be 1.16 ± 0.13.
Next, IIMVYSRSLLMLKLSLVVPC: “inactive”.
In turn, IINKSLWLPRNLAFGNY displayed an amyloid nucleation score of 0.117 ± 0.47.
Then IIRGVTAGALFYYFSVILLR, with -0.214 ± 0.77; and IIRLVQNRSIMSFAMGISWV, with 2.4 ± 0.33.
Next, IISKGSWSKSTDFGGLM: -1.83 ± 1.7; IISRLCLQLPATRT: 1.21 ± 0.67.
Then IISTWSYGSES, with 2.43 ± 0.14; and IIWRDNNTPYD, with 1.96 ± 0.7.
As for IKATGTRPRIHRYFGNC, the amyloid nucleation score was -0.173 ± 0.58.
Consider IKFRCYLCG, for which the amyloid nucleation score turned out to be 0.44 ± 0.9.
Then IKILLNWHV, with -0.628 ± 1.7; and IKLNTEALESYLLVFRMKRW, with -0.605 ± 0.46; and IKVSIIGWGYILAPGGESNV, with -1.28 ± 0.69.
Then ILAIKWTSVWCMESDFPIEV, with -0.402 ± 0.58; and ILDMMAKV, with 1.56 ± 0.76.
Then ILELGGCLVYYRGN, with 0.087 ± 0.69; and ILESRVPCCLKRGLNKEIGL, with 0.672 ± 0.46; and ILFDLQPKFVRR, with 0.693 ± 0.48.
In the case of ILGTIYDIMQNGDIHRFLAY, the amyloid nucleation score is -0.834 ± 1.2.
Next, ILHFWLTYK: 4.63 ± 0.1; ILHLLRFNDIAFVKRLSAVL: -0.067 ± 0.17.
Then ILICKLHRRVIRGWNFRSDR, with 0.086 ± 0.48.
For ILKSFLD, the amyloid nucleation score was -0.071 ± 0.42.
Next, ILMFWSPVGSRLTLSTSKLQ: -0.234 ± 1.6.
Take ILMILNLRTTSPWDWNWVSV: the amyloid nucleation score turned out to be 0.296 ± 0.83.
Then ILNTTHCHKHKKTCEHSACD, with -0.883 ± 0.48; and ILRAFWESGHTGGVWATVSS, with -1.19 ± 0.77.
Then ILREQNSLDTSRFYRGRSLV, with 0.187 ± 0.65; and ILRQIDIDATYVIFLEMSRL, with 5.854 ± 0.047.
Then ILSEPNELTGACLAS, with 0.29 ± 0.78.
Substance ILSPRVPINRICAVEQRRGI returned an amyloid nucleation score of -0.952 ± 0.83.
Then ILVTLHMTCLRRSRNTLSFY, with -0.45 ± 1.5; and ILWLVMWVWTSRFVRCRRHS, with -1.94 ± 2.4.
Next, ILYNA: -0.166 ± 1.2; ILYVVWFYVLLRWVRVLLLR: 0.884 ± 0.49.
IMAGP returned an amyloid nucleation score of -0.624 ± 0.58.
Then IMDSSMGGSSKMYKVVANDL, with 0.311 ± 0.64; and IMKRCCGESMMPDAGWSGSA, with -0.401 ± 1.
Then IMMSYRFHFNNSERIRGCVR, with -0.321 ± 0.26; and INAQAVIGNFRGRYSVYNVH, with 4.23 ± 0.065.
